Values of other authors as cited in paper PMC7300301.

Target: FcRn (Homo sapiens) (UniProt P55899)
Sequence (P55899 24-297, chain 1 of 2): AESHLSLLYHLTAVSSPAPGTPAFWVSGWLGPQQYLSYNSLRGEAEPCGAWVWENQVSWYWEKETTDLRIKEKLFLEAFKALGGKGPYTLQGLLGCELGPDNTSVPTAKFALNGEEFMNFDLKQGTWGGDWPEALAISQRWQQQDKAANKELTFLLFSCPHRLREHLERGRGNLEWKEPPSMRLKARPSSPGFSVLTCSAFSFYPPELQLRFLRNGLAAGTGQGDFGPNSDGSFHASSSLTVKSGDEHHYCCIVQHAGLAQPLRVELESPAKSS
Sequence (partner, as listed by the source, chain 2 of 2): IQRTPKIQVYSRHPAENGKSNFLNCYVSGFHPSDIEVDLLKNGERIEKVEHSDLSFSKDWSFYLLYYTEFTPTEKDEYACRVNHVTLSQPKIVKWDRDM

For palivizumab, the Kd is given as 0.75 µM.
